Measured values from patent US20170072028A1.

Target: C3aR1 (C3a receptor) on mouse pancreatic islet cells (mouse) (UniProt O09047)
Test: cell-based or functional assay

Chain of C3aR1 (C3a receptor) on mouse pancreatic islet cells (mouse) (O09047 whole entry): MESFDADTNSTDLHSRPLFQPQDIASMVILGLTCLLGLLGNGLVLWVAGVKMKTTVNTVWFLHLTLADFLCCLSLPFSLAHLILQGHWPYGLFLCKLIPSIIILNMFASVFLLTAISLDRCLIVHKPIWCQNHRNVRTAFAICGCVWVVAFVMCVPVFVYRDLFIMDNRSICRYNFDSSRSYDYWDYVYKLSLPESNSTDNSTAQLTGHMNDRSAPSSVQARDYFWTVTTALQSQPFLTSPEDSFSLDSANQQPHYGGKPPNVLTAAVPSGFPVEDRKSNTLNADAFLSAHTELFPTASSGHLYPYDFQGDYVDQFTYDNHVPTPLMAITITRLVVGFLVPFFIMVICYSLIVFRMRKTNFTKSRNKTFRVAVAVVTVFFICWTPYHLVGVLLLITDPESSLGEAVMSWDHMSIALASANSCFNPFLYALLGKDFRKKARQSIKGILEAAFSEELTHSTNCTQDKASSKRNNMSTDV

Recombinant C3a protein (ligand)
glucose-stimulated insulin secretion assay on isolated murine islets (enhancement of insulin secretion at high glucose): 30 to 40%
